Broadly, the IC50 is the concentration needed to halve the response being measured.

The text below walks through data of patent publication US20170260272A1 (Novartis, published 2017).

Assay [1] deals with T1, human LOX-1 (full-length, on cells) (human, UniProt P78380 1-273). The assay is described as follows: cell-based or functional assay.
In assay [2] the target is T2, APP-Avi-soluble human LOX-1(61-273) (human, UniProt P78380 61-273). The assay is described as follows: SET, IgG vs soluble human LOX-1. How it is done:
(§1) Affinity determination for anti-LOX-1 IgGs using Solution Equilibrium Titration (SET) was basically performed as described in the literature (Friguet et al., 1985 J Immunol Methods 77: 305-319). The assays were performed in a 96-well polypropylene plate (Thermo Scientific, Catalog no. AB-1127) using a constant concentration of LOX-1 antibody mixed with different concentrations of non-biotinylated human or cynomolgus monkey LOX-1 protein and incubated at 22° C. for 14 hours with constant shaking (300 rpm).
(§2) On a pre-blocked MSD plate (Meso Scale Discovery, catalog no. L21SA) biotinylated human or cynomolgus monkey soluble LOX-1 protein was immobilized and washed afterwards. The equilibrium binding reactions were then applied to the MSD plate with immobilized LOX-1 and incubated for 30 min. The unbound material was removed by washing the plate, and the captured antibody was detected by adding Sulfo-tagged goat anti-human IgG (Meso Scale Discovery, catalog no. R3AJ-1). After incubation and washing 1×MSD read buffer T(Meso Scale Discovery, catalog no. R92TC-2) was added and the plate was developed using a Sector Imager 6000 (Meso Scale Discovery). The data were transferred to Excel for analysis and plotted using GraphPad Prism v5. The KD values were determined by fitting the data to the following equation: […]

For assay [3], the target named is T3, APP-Avi-soluble cynomolgus monkey LOX-1(61-273) (cynomolgus monkey).
T3 construct: Non-biotinylated as titrated antigen in SET, biotinylated for capture on the plate; also called cyno sLOX-1; cynomolgus monkey soluble LOX-1
The assay is described as follows: SET, IgG vs soluble cynomolgus LOX-1. How it is done: as §1, §2

In assay [4] the target is T2, APP-Avi-soluble human LOX-1(61-273). Kind of assay: competition ELISA: oxLDL binding to plate-bound biotinylated human sLOX-1. How it is done: NeutrAvidin 384 well plates were coated with 2.5 μg/ml biotinylated LOX-1 diluted in PBS. After blocking with 25% Block Ace (AbD Serotec, Cat#BUF029) in PBS, purified Fabs or IgGs diluted in PBS/1% BSA were added. Subsequently OxLDL (copper-sulfate oxidized LDL, Kalen Biomedical #770202) or MDA-LDL (Academy Biomedical, #20P-UMD-L102) ligand diluted in PBS/1% BSA were allowed to bind to coated LOX-1. Secondary antibody (HRP conjugated sheep anti ApoB IgG; The Binding Site) diluted 1:1,000 in PBS/1% BSA was added followed by addition of TMB substrate (Thermo Scientific). After 10 minutes 1M H2SO4 was added and absorbance was determined at 450 nm. During early screenings, Fab fragments were also tested in this oxLDL binding assay using Fab-containing crude E. coli lysates.
The ability of LOX-1 antibodies to inhibit oxLDL binding to LOX-1 protein was determined using the method described in Example 4. In addition to “high binding OxLDL” from Kalen Biomedical (catalog number 770212-7), which is generated by copper sulfate mediated oxidation of LDL, two other forms of modified LDL were tested in this assay: malondialdehyde modified LDL (Academy Bio-Medical Co. catalog number 20P-MD-L105) and hypochlorite modified LDL. Hypochlorite modified LDL was prepared according to the following procedure. Human LDL (Kalen Biomedical catalog number 770200-4) was diluted with PBS to a final concentration of 0.25 mg/mL. Sodium hypochlorite (NaOCI, JT Baker catalog number 9416-01) was then added to 0.1 mM final concentration. The solution was incubated at room temperate for 4 hours, then quenched by adding L-methionine to a final concentration of reaction by adding 5 μl of 100 mM Mehionine per 200 μl total volume.
(An ELISA detects its analyte on a solid surface through an enzyme-linked reagent.)

In assay [5] the target is T1, human LOX-1 (full-length, on cells). Kind of assay: flow cytometry: DiI-oxLDL binding to human LOX-1 transfected HEK293 cells. How it is done: The huLOX-1/HEK293 cells were resuspended at 1×10⁶ cells/mL and seeded 50 μL per well into a 96-well V-bottom plate (5×10⁴ cells per well). LOX-1 or irrelevant control antibodies in assay medium (DMEM+10% FBS) were then added to the cells. Typical final antibody concentrations ranged from 0.006 μg/mL to 20 μg/mL. The cells were incubated at 37° C. for 1 hour, then washed twice with warm HBSS. Dil-oxLDL (human dil-labeled “High Oxidized” LDL, Kalen Biomedical, catalog number 770262-9; Dil is 1,1′-dioctadecyl-3,3,3′,3′-tetramethylindocarbocyanine perchlorate) in 50 ul assay medium was then added to a final concentration 30 to 100 μg/mL. The cells were then incubated at 37° C. for 2 hours, and then washed twice with FACS buffer (2% FBS in PBS). Cells were then analyzed for intensity of Di-I fluorescence by flow cytometry, as depicted in FIGS. 2A-2B and Table 3.
(In flow cytometry, cells or beads pass a laser one at a time.)

T3 sequence (chain, as listed by the source limits assumed): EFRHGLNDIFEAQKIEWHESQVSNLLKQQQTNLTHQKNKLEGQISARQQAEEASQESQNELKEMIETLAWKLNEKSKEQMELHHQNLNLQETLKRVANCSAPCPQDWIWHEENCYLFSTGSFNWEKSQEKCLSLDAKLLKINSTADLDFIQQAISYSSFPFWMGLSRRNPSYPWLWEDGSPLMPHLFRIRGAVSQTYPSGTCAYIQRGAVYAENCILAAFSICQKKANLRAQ

B1: MOR22031 (antibody, human IgG1, kappa, L234A L235A, V domains shown)
VH: QVQLVQSGAEVKKPGSSVKVSCKASGGTFSDYAISWVRQAPGQGLEWMGGIMPISGAPYYAQKFQGRVTITADESTSTAYMELSSLRSEDTAVYYCARDSSTSYYYYFDYWGQGTLVTVSS
VL: DIQMTQSPSSLSASVGDRVTITCRASQDISSWLAWYQQKPGKAPKLLIYQASNLQSGVPSRFSGSGSGTDFTLTISSLQPEDFATYYCQQIDHTPFTFGQGTKVEIKR
notes: Human IgG1f LALA; also called MOR022031; MOR20231
For B1, the “Inhibition of ROS generation (IC50, nM)” value in assay [1] is 1.9 nM. The Kd was 0.003 nM in assay [2] and 0.004 nM in assay [3]. Further, the IC50 stood at 4 nM in assay [4] and 0.8 nM in assay [5].

B2: MOR020152 (antibody, human IgG1, lambda, L234A L235A, V domains shown)
VH: QVQLVQSGAEVKKPGSSVKVSCKASGGTFSSYAISWVRQAPGQGLEWMGRIIPIFGGANYAQKFQGRVTITADESTSTAYMELSSLRSEDTAVYYCARDPLYRSDYYYHWFDFWGQGTLVTVSS
VL: DIALTQPASVSGSPGQSITISCTGTSSDVGNFNYVSWYQQHPGKAPKLMIYGVNNRPSGVSNRFSGSKSGNTASLTISGLQAEDEADYYCAAYGWALDEVVFGGGTKLTVLG
notes: also called MOR20152
In the case of B2, the Kd in assay [2] turned out to be 0.0014 nM. In addition, in assay [4], the IC50 was determined as 5 nM.

B3: MOR22029 (antibody, human IgG1, lambda, L234A L235A)
heavy: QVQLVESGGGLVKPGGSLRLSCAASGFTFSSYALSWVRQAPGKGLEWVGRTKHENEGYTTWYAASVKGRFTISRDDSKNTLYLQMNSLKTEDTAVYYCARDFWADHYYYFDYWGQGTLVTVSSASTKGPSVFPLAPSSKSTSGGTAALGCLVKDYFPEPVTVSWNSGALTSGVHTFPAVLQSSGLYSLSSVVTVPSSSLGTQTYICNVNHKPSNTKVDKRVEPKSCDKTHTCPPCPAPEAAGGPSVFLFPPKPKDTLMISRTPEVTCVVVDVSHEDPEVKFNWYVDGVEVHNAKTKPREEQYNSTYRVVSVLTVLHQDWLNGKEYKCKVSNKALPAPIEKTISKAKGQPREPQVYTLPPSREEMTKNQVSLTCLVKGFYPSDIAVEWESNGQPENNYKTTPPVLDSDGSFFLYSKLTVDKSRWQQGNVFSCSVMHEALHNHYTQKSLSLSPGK
light: QSALTQPASVSGSPGQSITISCTGTSSDVGYINYVNWYQQHPGKAPKLMIYEVSNRPSGVSNRFSGSKSGNTASLTISGLQAEDEADYYCASWDWYDNVVFGGGTKLTVLGQPKAAPSVTLFPPSSEELQANKATLVCLISDFYPGAVTVAWKADSSPVKAGVETTTPSKQSNNKYAASSYLSLTPEQWKSHRSYSCQVTHEGSTVEKTVAPTECS
notes: Human IgG1f LALA; also called MOR022029; MOR20229
Turning to B3, the “Inhibition of ROS generation (IC50, nM)” value in assay [1] stood at 2.2 nM. For the same molecule, the Kd stood at 0.01 nM in assay [2] and 0.007 nM in assay [3]. Besides, the IC50 came out at 4 nM in assay [4] and 0.4 nM in assay [5].

B4: MOR22030 (antibody, human IgG1, lambda, L234A L235A)
heavy: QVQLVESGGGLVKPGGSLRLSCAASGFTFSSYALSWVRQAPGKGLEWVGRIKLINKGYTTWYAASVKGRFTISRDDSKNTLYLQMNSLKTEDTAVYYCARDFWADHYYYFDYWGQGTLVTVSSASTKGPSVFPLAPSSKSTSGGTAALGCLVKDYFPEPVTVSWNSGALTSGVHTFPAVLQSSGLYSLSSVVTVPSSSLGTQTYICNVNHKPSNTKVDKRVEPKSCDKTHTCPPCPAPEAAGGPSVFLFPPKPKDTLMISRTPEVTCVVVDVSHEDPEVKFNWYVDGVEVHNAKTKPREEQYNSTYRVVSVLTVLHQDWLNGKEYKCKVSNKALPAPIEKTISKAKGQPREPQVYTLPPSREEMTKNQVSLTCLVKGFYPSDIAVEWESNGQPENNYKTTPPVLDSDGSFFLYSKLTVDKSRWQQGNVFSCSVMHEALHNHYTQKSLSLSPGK
light: QSALTQPASVSGSPGQSITISCTGTSSDVGYINYVNWYQQHPGKAPKLMIYEVSNRPSGVSNRFSGSKSGNTASLTISGLQAEDEADYYCASWDWYDNVVFGGGTKLTVLGQPKAAPSVTLFPPSSEELQANKATLVCLISDFYPGAVTVAWKADSSPVKAGVETTTPSKQSNNKYAASSYLSLTPEQWKSHRSYSCQVTHEGSTVEKTVAPTECS
notes: Human IgG1f LALA; also called MOR022030; MOR20230
Consider B4, for which, in assay [1], the “Inhibition of ROS generation (IC50, nM)” value stood at 2.5 nM. The Kd in assay [2] amounted to 0.004 nM; in assay [3], 0.007 nM. Besides, the IC50 in assay [4] stood at 6 nM; in assay [5] it was 0.5 nM.

B5: MOR022025 (antibody, human IgG1, lambda, L234A L235A, V domains shown)
VH: QVQLLESGGGLVQPGGSLRLSCAASGFTFSDYALHWVRQAPGKGLEWVSVISYQGGFIYYADSVKGRFTISRDNSKNTLYLQMNSLRAEDTAVYYCARSPGLTSYHDSWGQGTLVTVSS
VL: QSVLTQPPSVSGAPGQRVTISCSGSSSNIGSNYVSWYQQLPGTAPKLLIHSTSHRPSGVPDRFSGSKSGTSASLAITGLQAEDEADYYCQSWDYESERVVFGGGTKLTVLG
notes: Human IgG1f LALA; also called MOR20225; MOR020225
For B5, the “Inhibition of ROS generation (IC50, nM)” value in assay [1] was determined as 4.6 nM. Besides, the figures for the Kd in assay [2] and in assay [3] were 0.0003 nM and 0.0007 nM, respectively. For the same molecule, the IC50 worked out at 11 nM in assay [4] and 1 nM in assay [5].

B6: MOR22028 (antibody, human IgG1, lambda, L234A L235A, V domains shown)
VH: QVQLLESGGGLVQPGGSLRLSCAASGFTFSDYALHWVRQAPGKGLEWVSVISYAGGFKFYADSVKGRFTISRDNSKNTLYLQMNSLRAEDTAVYYCARSPGLTSYHDSWGQGTLVTVSS
VL: QSVLTQPPSVSGAPGQRVTISCSGSSSNIGSNYVSWYQQLPGTAPKLLIHSSSHRPSGVPDRFSGSKSGTSASLAITGLQAEDEADYYCQSWDYESERVVFGGGTKLTVLG
notes: Human IgG1f LALA; also called MOR022028; MOR20228
B6: the “Inhibition of ROS generation (IC50, nM)” value in assay [1] came out at 3.5 nM. Also, the results for the Kd in assay [2] and in assay [3] were 0.0006 nM and 0.0005 nM, respectively. The values for the concentration for half-maximal inhibition (IC50) in assay [4] and in assay [5] were 9 nM and 0.7 nM, respectively.
